In paper PMC5244374:

Biological target: homotarsinin (Htr), cystine-linked homodimer (Phyllomedusa tarsius)
Assay: SEC; 2 mg/mL peptide, Superdex Peptide 10/300 GL, 20 mM phosphate pH 7.0, 0.3 M NaCl, room temperature, 0.3 mL/min; homotarsinin and distinctin compared by retention time

## homotarsinin (Htr), cystine-linked homodimer (peptide)
  stoichiometry N: 2
